From PMC12126490, “The HP1 box of KAP1 organizes HP1α for silencing of endogenous retroviral elements in embryonic stem cells” (Nature Communications, 2025)

Columns and labels:
[1] = test system: endogenous HP1α in KAP1^−/− ESCs; test: immunofluorescence of endogenous HP1α; assay type: cell-based; conditions: KAP1^−/− mouse ESCs stably expressing the GFP-labeled construct, anti-HP1α antibody, DAPI
Procedure: The constructs coding for GFP-KAP1RF and the P486A/V488A/L490A mutant were transfected into 1 ×10^5 KAP1^−/− mouse ESCs using Lipofectamine 3000 (Invitrogen). Forty-eight hours post-transfection, cells were trypsinized and plated at a colony density in selection medium containing 10 μg/ml blasticidin (Thermo Fisher Sci) for one week. The selection process was repeated once to establish stable GFP-KAP1 expressing cell lines.
For immunostaining, mouse ESCs were cultured on Geltrex-coated coverslips (Life Technologies) in DMEM supplemented with 16% fetal bovine serum, 0.1 mM β-mercaptoethanol (Invitrogen), 2 mM L-glutamine, 1× MEM non-essential amino acids, 100 U/ml penicillin, 100 µg/ml streptomycin (PAA), 2i (1 μM PD032591 and 3 μM CHIR99021 (Axon Medchem, Netherlands) and 1000 U/ml recombinant LIF (Millipore). Coverslips were rinsed twice with PBS (pH 7.4; 140 mM NaCl, 2.7 mM KCl, 6.5 mM Na2HPO4, 1.5 mM KH2PO4), followed by fixation with 3.7% formaldehyde (Sigma) for 10 min. Fixed cells were washed three times (10 min each) with PBST (PBS + 0.01% Tween-20), permeabilized in 0.5% Triton X-100 for 10 min, and washed twice (10 min each) with PBST. Primary and secondary antibodies were prepared in blocking solution (PBST + 3% BSA). […]

[2] = test system: DNA-induced HP1α phase separated droplets; test: in vitro droplet assay; conditions: 50 µM HP1α, 0.18 µM 601 DNA
From the text: For droplet assays, cDNA of full-length HP1α was cloned into a pET28 expression vector. His-tag fusion HP1α was expressed in E. coli and purified as in ref. [51]. cDNA of the KAP1FR fragment (aa 114–834) was cloned into a pCAG-GFP expression vector, and the P486A/V488A/L490A mutant of GFP-KAP1FR was generated using overlap extension PCR. Purification of GFP-KAP1FR proteins was described in ref. [52].
For the droplet assay, Widom 601 DNA was amplified by PCR using a plasmid coding for 12× 601 DNA with primers as follows: 601 DNA_F: […] and 601 DNA_R: TGCACAGGATGTATATATCTGACAC. HP1α was concentrated to ~10 µg/µl using Amicon concentrators. The buffer changes for both HP1α and GFP-KAP1FR solutions were carried out using Zeba™ Spin Desalting Columns with a buffer containing 20 mM HEPES at pH 7.2, 75 mM KCl, and 1 mM DTT. For visualization of His-tagged-HP1α within the droplets, 500 ng of protein was labeled with the 647 N fluorescent label using the Monolith NT™ Protein Labeling Kit RED-NHS from Nano Temper. To form HP1α droplets, 50 µM of HP1α was incubated with 0.18 µM of 601 DNA for 3 min and dropped into ibidi chamber (µ-Slide 18 Well). Subsequently, 50 ng of the labeled HP1α and 100 ng of GFP-KAP1FR (wild type or mutant) were added into HP1α/DNA droplets. The images of the droplets were collected using a Nikon TiE microscope equipped with a Yokogawa CSU-W1 spinning-disk confocal unit (50 μm pinhole size), an Andor Borealis illumination unit, Andor ALC600 laser beam combiner (405 nm/488 nm/561 nm/640 nm), Andor IXON 888 Ultra EMCCD camera, and a Nikon 100×/1.45 NA oil immersion objective. The size and intensity of HP1α phase-separated droplets were analyzed using ImageJ.

[3] = test system: dsRed-HP1α in E14 ESC cells; test: heterochromatin half-FRAP (MOCHA-FRAP); assay type: cell-based, mouse; conditions: bleached and non-bleached half of heterochromatin compartment, living ESCs
Procedure: E14 ESC cells were transfected with 3 µg of pdsRed-HP1α and either pGFP or pGFP-KAP1FR using AMAXA nucleofector (Lonza), seeded in slide chambers containing high precision glass overnight at 37 °C and 5% CO2. Samples were analyzed using a Leica SP5-II confocal point scanner microscope equipped with 488 nm Argon ion and 561 nm DPSS 50 mW lasers, a AOBS beams splitter and a HyD Hybrid detector. Cells were first scanned for GFP^+ using a HCX PL APO 100x Corr CS objective, and a section of 64 × 64 pixels with 0.8-0.6 µm/px size containing one heterochromatin compartment of these cells was selected. Subsequently, a point region of interest was used to bleach the half of the heterochromatin compartment for 100 ms at maximum intensity of the laser (488 and 561 nm). The recovery was documented for 15 s with a frame rate of approximately 100 ms/frame. MOCHA-FRAP analysis was performed as in ref. [36].

B1: GFP-KAP1FR: GFP labeled KAP1 fragment (aa 114–834 of KAP1) (protein)
chain: VVDCPVCKQQCFSKDIVENYFMRDSGSKAATDAQDANQCCTSCEDNAPATSYCVECSEPLCETCVEAHQRVKYTKDHTVRSTGPAKSRDGERTVYCNVHKHEPLVLFCESCDTLTCRDCQLNAHKDHQYQFLEDAVRNQRKLLASLVKRLGDKHATLQKSTKEVRSSIRQVSDVQKRVQVDVKMAILQIMKELNKRGRVLVNDAQKVTEGQQERLERQHWTMTKIQKHQEHILRFASWALESDNNTALLLSKKLIYFQLHRALKMIVDPVEPHGEMKFQWDLNAWTKSAEAFGKIVAERPGTNSTGPAPMAPPRAPGPLSKQGSGSSQPMEVQEGYGFGSGDDPYSSAEPHVSGVKRSRSGEGEVSGLMRKVPRVSLERLDLDLTADSQPPVFKVFPGSTTEDYNLIVIERGAAAAATGQPGTAPAGTPGAPPLAGMAIVKEEETEAAIGAPPTATEGPETKPVLMALAEGPGAEGPRLASPSGSTSSGLEVVAPEGTSAPGGGPGTLDDSATICRVCQKPGDLVMCNQCEFCFHLDCHLPALQDVPGEEWSCSLCHVLPDLKEEDGSLSLDGADSTGVVAKLSPANQRKCERVLLALFCHEPCRPLHQLATDSTFSLDQPGGTLDLTLIRARLQEKLSPPYSSPQEFAQDVGRMFKQFNKLTEDKADVQSIIGLQRFFETRMNEAFGDTKFSAVLVEPPPMSLPGAGLSSQELSGGPGDG
modifications: left off: GFP, end not stated, kept
distribution of endogenous HP1α (puncta) [1]: Endogenous HP1α formed large puncta and colocalized with GFP-KAP1FR | sequestration of 647N labeled HP1α into droplets ([2]; 20 mM HEPES pH 7.2, 75 mM KCl, 1 mM DTT, 100 ng GFP-KAP1FR, 50 ng labeled HP1α): sequestered HP1a into the interior of droplets within a minute | localization of GFP-KAP1FR in droplets ([2]; confocal microscopy): concentrated at the periphery of the droplets | fluorescence recovery of HP1α [3]: neither the bleached half (thin purple line) nor the non-bleached half (thick purple line) fully recovered their fluorescence
